{
  "source": "the Human Domainome abundance scans (Beltran et al. 2025)",
  "parents": {"B1": {"name": "Serine/threonine-protein kinase A-Raf, residues 21 to 89; numbered along this chain, P10398 (parent)", "chain": "VKVYLPNKQRTVVTVRDGMSVYDSLDKALKVRGLNQDCCVVYRLIKGRKTVTAWDTAIAPLDGEELIVE"}},
  "note": "± gives the uncertainty stated by the source.",
  "data": [
    {"variants_of": "B1", "assay": "abundance fitness (aPCA) (normalised: wild type 0, dead -1); higher = more abundant; growth selection in yeast, the domain comes from the species named", "settings": "Homo sapiens", "values": [
      {"variant": "VKVYLPNKQRTVVTVRDGMSVYDSLDKALKVRGLNQDCCVVYRLWKGRKTVTAWDTAIAPLDGEELIVE", "note": "[I45W]", "abundance fitness": "-0.1 ± 0.073"},
      {"variant": "VKVYLPNKQRTVVTVRDGMSVYDSLDKALKVRGLNQDCCVVYRLAKGRKTVTAWDTAIAPLDGEELIVE", "note": "[I45A]", "abundance fitness": "-0.318 ± 0.079"},
      {"variant": "VKVYLPNKQRTVVTVRDGMSVYDSLDKALKVRGLNQDCCVVYRLGKGRKTVTAWDTAIAPLDGEELIVE", "note": "[I45G]", "abundance fitness": "-0.198 ± 0.12"},
      {"variant": "VKVYLPNKQRTVVTVRDGMSVYDSLDKALKVRGLNQDCCVVYRLVKGRKTVTAWDTAIAPLDGEELIVE", "note": "[I45V]", "abundance fitness": "-0.067 ± 0.12"},
      {"variant": "VKVYLPNKQRTVVTVRDGMSVYDSLDKALKVRGLNQDCCVVYRLEKGRKTVTAWDTAIAPLDGEELIVE", "note": "[I45E]", "abundance fitness": "-0.224 ± 0.079"},
      {"variant": "VKVYLPNKQRTVVTVRDGMSVYDSLDKALKVRGLNQDCCVVYRLPKGRKTVTAWDTAIAPLDGEELIVE", "note": "[I45P]", "abundance fitness": "-1.1 ± 0.32"},
      {"variant": "VKVYLPNKQRTVVTVRDGMSVYDSLDKALKVRGLNQDCCVVYRLYKGRKTVTAWDTAIAPLDGEELIVE", "note": "[I45Y]", "abundance fitness": "-0.077 ± 0.19"},
      {"variant": "VKVYLPNKQRTVVTVRDGMSVYDSLDKALKVRGLNQDCCVVYRLNKGRKTVTAWDTAIAPLDGEELIVE", "note": "[I45N]", "abundance fitness": "-0.435 ± 0.27"},
      {"variant": "VKVYLPNKQRTVVTVRDGMSVYDSLDKALKVRGLNQDCCVVYRLTKGRKTVTAWDTAIAPLDGEELIVE", "note": "[I45T]", "abundance fitness": "-0.319 ± 0.12"},
      {"variant": "VKVYLPNKQRTVVTVRDGMSVYDSLDKALKVRGLNQDCCVVYRLMKGRKTVTAWDTAIAPLDGEELIVE", "note": "[I45M]", "abundance fitness": "-0.508 ± 0.12"},
      {"variant": "VKVYLPNKQRTVVTVRDGMSVYDSLDKALKVRGLNQDCCVVYRLFKGRKTVTAWDTAIAPLDGEELIVE", "note": "[I45F]", "abundance fitness": "-0.179 ± 0.074"},
      {"variant": "VKVYLPNKQRTVVTVRDGMSVYDSLDKALKVRGLNQDCCVVYRLRKGRKTVTAWDTAIAPLDGEELIVE", "note": "[I45R]", "abundance fitness": "-0.098 ± 0.053"},
      {"variant": "VKVYLPNKQRTVVTVRDGMSVYDSLDKALKVRGLNQDCCVVYRLCKGRKTVTAWDTAIAPLDGEELIVE", "note": "[I45C]", "abundance fitness": "-0.458 ± 0.2"},
      {"variant": "VKVYLPNKQRTVVTVRDGMSVYDSLDKALKVRGLNQDCCVVYRLSKGRKTVTAWDTAIAPLDGEELIVE", "note": "[I45S]", "abundance fitness": "-0.087 ± 0.071"},
      {"variant": "VKVYLPNKQRTVVTVRDGMSVYDSLDKALKVRGLNQDCCVVYRLQKGRKTVTAWDTAIAPLDGEELIVE", "note": "[I45Q]", "abundance fitness": "-0.078 ± 0.087"},
      {"variant": "VKVYLPNKQRTVVTVRDGMSVYDSLDKALKVRGLNQDCCVVYRLHKGRKTVTAWDTAIAPLDGEELIVE", "note": "[I45H]", "abundance fitness": "-0.026 ± 0.14"},
      {"variant": "VKVYLPNKQRTVVTVRDGMSVYDSLDKALKVRGLNQDCCVVYRLDKGRKTVTAWDTAIAPLDGEELIVE", "note": "[I45D]", "abundance fitness": "-0.1 ± 0.13"},
      {"variant": "VKVYLPNKQRTVVTVRDGMSVYDSLDKALKVRGLNQDCCVVYRLKKGRKTVTAWDTAIAPLDGEELIVE", "note": "[I45K]", "abundance fitness": "0.089 ± 0.18"},
      {"variant": "VKVYLPNKQRTVVTVRDGMSVYDSLDKALKVRGLNQDCCVVYRLLKGRKTVTAWDTAIAPLDGEELIVE", "note": "[I45L]", "abundance fitness": "-0.11 ± 0.051"},
      {"variant": "VKVYLPNKQRTVVTVRDGMSVYDSLDKALKVRGLNQDCCVVYRLIKMRKTVTAWDTAIAPLDGEELIVE", "note": "[G47M]", "abundance fitness": "-1.06 ± 0.2"},
      {"variant": "VKVYLPNKQRTVVTVRDGMSVYDSLDKALKVRGLNQDCCVVYRLIKVRKTVTAWDTAIAPLDGEELIVE", "note": "[G47V]", "abundance fitness": "-0.863 ± 0.097"},
      {"variant": "VKVYLPNKQRTVVTVRDGMSVYDSLDKALKVRGLNQDCCVVYRLIKFRKTVTAWDTAIAPLDGEELIVE", "note": "[G47F]", "abundance fitness": "-0.998 ± 0.25"},
      {"variant": "VKVYLPNKQRTVVTVRDGMSVYDSLDKALKVRGLNQDCCVVYRLIKHRKTVTAWDTAIAPLDGEELIVE", "note": "[G47H]", "abundance fitness": "-0.907 ± 0.21"},
      {"variant": "VKVYLPNKQRTVVTVRDGMSVYDSLDKALKVRGLNQDCCVVYRLIKLRKTVTAWDTAIAPLDGEELIVE", "note": "[G47L]", "abundance fitness": "-0.873 ± 0.091"},
      {"variant": "VKVYLPNKQRTVVTVRDGMSVYDSLDKALKVRGLNQDCCVVYRLIKCRKTVTAWDTAIAPLDGEELIVE", "note": "[G47C]", "abundance fitness": "-0.826 ± 0.17"},
      {"variant": "VKVYLPNKQRTVVTVRDGMSVYDSLDKALKVRGLNQDCCVVYRLIKNRKTVTAWDTAIAPLDGEELIVE", "note": "[G47N]", "abundance fitness": "-0.665 ± 0.27"},
      {"variant": "VKVYLPNKQRTVVTVRDGMSVYDSLDKALKVRGLNQDCCVVYRLIKERKTVTAWDTAIAPLDGEELIVE", "note": "[G47E]", "abundance fitness": "-0.573 ± 0.083"},
      {"variant": "VKVYLPNKQRTVVTVRDGMSVYDSLDKALKVRGLNQDCCVVYRLIKPRKTVTAWDTAIAPLDGEELIVE", "note": "[G47P]", "abundance fitness": "-0.959 ± 0.19"},
      {"variant": "VKVYLPNKQRTVVTVRDGMSVYDSLDKALKVRGLNQDCCVVYRLIKQRKTVTAWDTAIAPLDGEELIVE", "note": "[G47Q]", "abundance fitness": "-0.359 ± 0.14"},
      {"variant": "VKVYLPNKQRTVVTVRDGMSVYDSLDKALKVRGLNQDCCVVYRLIKRRKTVTAWDTAIAPLDGEELIVE", "note": "[G47R]", "abundance fitness": "-0.841 ± 0.11"},
      {"variant": "VKVYLPNKQRTVVTVRDGMSVYDSLDKALKVRGLNQDCCVVYRLIKDRKTVTAWDTAIAPLDGEELIVE", "note": "[G47D]", "abundance fitness": "-0.71 ± 0.21"},
      {"variant": "VKVYLPNKQRTVVTVRDGMSVYDSLDKALKVRGLNQDCCVVYRLIKKRKTVTAWDTAIAPLDGEELIVE", "note": "[G47K]", "abundance fitness": "-0.768 ± 0.21"},
      {"variant": "VKVYLPNKQRTVVTVRDGMSVYDSLDKALKVRGLNQDCCVVYRLIKWRKTVTAWDTAIAPLDGEELIVE", "note": "[G47W]", "abundance fitness": "-0.888 ± 0.17"},
      {"variant": "VKVYLPNKQRTVVTVRDGMSVYDSLDKALKVRGLNQDCCVVYRLIKSRKTVTAWDTAIAPLDGEELIVE", "note": "[G47S]", "abundance fitness": "-0.734 ± 0.11"},
      {"variant": "VKVYLPNKQRTVVTVRDGMSVYDSLDKALKVRGLNQDCCVVYRLIAGRKTVTAWDTAIAPLDGEELIVE", "note": "[K46A]", "abundance fitness": "0.001 ± 0.037"},
      {"variant": "VKVYLPNKQRTVVTVRDGMSVYDSLDKALKVRGLNQDCCVVYRLINGRKTVTAWDTAIAPLDGEELIVE", "note": "[K46N]", "abundance fitness": "0.228 ± 0.17"},
      {"variant": "VKVYLPNKQRTVVTVRDGMSVYDSLDKALKVRGLNQDCCVVYRLIVGRKTVTAWDTAIAPLDGEELIVE", "note": "[K46V]", "abundance fitness": "-0.792 ± 0.089"},
      {"variant": "VKVYLPNKQRTVVTVRDGMSVYDSLDKALKVRGLNQDCCVVYRLISGRKTVTAWDTAIAPLDGEELIVE", "note": "[K46S]", "abundance fitness": "-0.08 ± 0.058"},
      {"variant": "VKVYLPNKQRTVVTVRDGMSVYDSLDKALKVRGLNQDCCVVYRLIEGRKTVTAWDTAIAPLDGEELIVE", "note": "[K46E]", "abundance fitness": "0.102 ± 0.08"}
    ]}
  ]
}
